From patent US7566535B2, “Enhanced oligonucleotide-mediated nucleic acid sequence alteration” (University of Delaware, priority 2002, dated 2009)
In the oligonucleotide strings, read from the 5' end, every base follows the letter of its sugar. An asterisk marks phosphorothioate; unmarked linkages are phosphodiester. Other units and linkages are bracketed, terminal groups are in braces. A string of capitals states the bases alone. d = 2'-deoxy (DNA)

Assays:
[1] = tested on: pAURHYG(rep)eGFP; assay: In vivo correction of episomal pAURHYG(rep)eGFP in yeast, hygromycin-resistant colonies; details: 5 μg oligo
[2] = tested on: pAURHYG(x)eGFP; assay: Strand bias of hygromycin gene correction in rad1 and rad10 yeast mutants
[3] = tested on: pAURHYG(ins)eGFP; assay: In vivo correction of episomal pAURHYG(ins)eGFP in yeast; details: for Average colony count on hygromycin plates / hygromycin-resistant colonies per aureobasidin-resistant colony: wild-type LSY678; for Colonies on Hygromycin / Correction Efficiency / Fold: 5 μg oligo
[4] = tested on: CYC1 gene; assay: CYC1 gene repair in diploid yeast strains, growth on glycerol (YPG); details: YMH55; 5 μg oligo

B1: HygE3T/74: 74-base single-stranded DNA oligonucleotide, three phosphorothioate linkages at each end, SEQ ID NO: 8 (nucleic acid)
DNA: dC*dT*dC*dGdTdGdCdTdTdTdCdAdGdCdTdTdCdGdAdTdGdTdAdGdGdAdGdGdGdCdGdTdGdGdAdTdAdCdGdTdCdCdTdGdCdGdGdGdTdAdAdAdTdAdGdCdTdGdCdGdCdCdGdAdTdGdGdTdTdTdC*dT*dA*dC
Q: B1 was tested. Which “Correction Efficiency” value ([1]; wild type) did it give?
A: The value was 4.26.

Q: What about the Fold ([1]; wild type) of the same molecule?
A: The Fold was 1x.

Q: And the “Colonies on Hygromycin” value ([1]; xrs2 mutant)?
A: The value was 29.

Q: And the “Correction Efficiency” value ([1]; xrs2 mutant)?
A: The value was 0.66.

Q: And the Fold ([1]; xrs2 mutant)?
A: The Fold was 0.15x.

Q: What about the “Colonies on Hygromycin” value ([2]; rad1 mutant) of the same molecule?
A: The value was 3.

Q: What about the “Colonies on Hygromycin” value ([2]; rad10 mutant) of the same molecule?
A: The value was 2.

Q: And the “Average colony count on hygromycin plates” value (from here on “Average colony count”) ([3]; 1.0 μg oligo)?
A: The value was 5.

Q: What about the “hygromycin-resistant colonies per aureobasidin-resistant colony” value ([3]; 1.0 μg oligo) of the same molecule?
A: Its value is 0.03.

Q: And the “Average colony count” value ([3]; 2.5 μg oligo)?
A: The value was 47.

Q: And the “hygromycin-resistant colonies per aureobasidin-resistant colony” value ([3]; 2.5 μg oligo)?
A: Its value is 0.29.

Q: What about the “Average colony count” value ([3]; 5.0 μg oligo) of the same molecule?
A: The value was 199.

Q: And the “hygromycin-resistant colonies per aureobasidin-resistant colony” value ([3]; 5.0 μg oligo)?
A: Its value is 1.24.

Q: And the “Average colony count” value ([3]; 7.5 μg oligo)?
A: Its value is 54.

Q: And the “hygromycin-resistant colonies per aureobasidin-resistant colony” value ([3]; 7.5 μg oligo)?
A: The value was 0.34.

Q: What about the “Average colony count” value ([3]; 10.0 μg oligo) of the same molecule?
A: The value was 17.

Q: And the “hygromycin-resistant colonies per aureobasidin-resistant colony” value ([3]; 10.0 μg oligo)?
A: The value was 1.10.

Q: What about the “Colonies on Hygromycin” value ([3]; Exo1 mutant) of the same molecule?
A: Its value is 2.

Q: What about the “Correction Efficiency” value ([3]; Exo1 mutant) of the same molecule?
A: Its value is 0.01.

Q: And the Fold ([3]; Exo1 mutant)?
A: Its Fold is 0x.

Q: What about the “Colonies on Hygromycin” value ([3]; mre11 mutant) of the same molecule?
A: The value was 3.

Q: And the “Correction Efficiency” value ([3]; mre11 mutant)?
A: Its value is 0.09.

Q: What about the Fold ([3]; mre11 mutant) of the same molecule?
A: The Fold was 0.03x.

Q: And the “Colonies on Hygromycin” value ([3]; msh2 mutant)?
A: The value was 0.

Q: What about the “Correction Efficiency” value ([3]; msh2 mutant) of the same molecule?
A: The value was 0.

Q: And the Fold ([3]; msh2 mutant)?
A: Its Fold is 0x.

Q: What about the “Colonies on Hygromycin” value ([3]; msh3 mutant) of the same molecule?
A: The value was 1.

Q: And the “Correction Efficiency” value ([3]; msh3 mutant)?
A: Its value is 0.05.

Q: And the Fold ([3]; msh3 mutant)?
A: Its Fold is 0.02x.

Q: What about the “Colonies on Hygromycin” value ([3]; msh6 mutant) of the same molecule?
A: Its value is 0.

Q: And the “Correction Efficiency” value ([3]; msh6 mutant)?
A: Its value is 0.

Q: And the Fold ([3]; msh6 mutant)?
A: The Fold was 0x.

Q: And the “Colonies on Hygromycin” value ([3]; pms1 mutant)?
A: Its value is 111.

Q: What about the “Correction Efficiency” value ([3]; pms1 mutant) of the same molecule?
A: The value was 18.5.

Q: And the Fold ([3]; pms1 mutant)?
A: The Fold was 5.35x.

Q: What about the “Colonies on Hygromycin” value ([3]; rad1 mutant) of the same molecule?
A: The value was 52.

Q: What about the “Correction Efficiency” value ([3]; rad1 mutant) of the same molecule?
A: Its value is 0.59.

Q: And the Fold ([3]; rad1 mutant)?
A: Its Fold is 0.17x.

Q: What about the “Colonies on Hygromycin” value ([3]; rad2 mutant) of the same molecule?
A: The value was 113.

Q: What about the “Correction Efficiency” value ([3]; rad2 mutant) of the same molecule?
A: Its value is 1.79.

Q: What about the Fold ([3]; rad2 mutant) of the same molecule?
A: Its Fold is 0.52x.

Q: And the “Colonies on Hygromycin” value ([3]; rad10 mutant)?
A: The value was 14.

Q: And the “Correction Efficiency” value ([3]; rad10 mutant)?
A: The value was 0.14.

Q: What about the Fold ([3]; rad10 mutant) of the same molecule?
A: The Fold was 0.04x.

Q: And the “Colonies on Hygromycin” value ([3]; rad23 mutant)?
A: The value was 1.

Q: And the “Correction Efficiency” value ([3]; rad23 mutant)?
A: Its value is 0.01.

Q: And the Fold ([3]; rad23 mutant)?
A: Its Fold is 0x.

Q: And the “Colonies on Hygromycin” value ([3]; rad50 mutant)?
A: Its value is 1.

Q: What about the “Correction Efficiency” value ([3]; rad50 mutant) of the same molecule?
A: The value was 0.06.

Q: And the Fold ([3]; rad50 mutant)?
A: The Fold was 0.02x.

Q: And the “Colonies on Hygromycin” value ([3]; rad51/52 mutant)?
A: The value was 3.

Q: And the “Correction Efficiency” value ([3]; rad51/52 mutant)?
A: The value was 0.3.

Q: What about the Fold ([3]; rad51/52 mutant) of the same molecule?
A: The Fold was 0.01x.

Q: What about the “Colonies on Hygromycin” value ([3]; rad51 mutant) of the same molecule?
A: The value was 19.

Q: What about the “Correction Efficiency” value ([3]; rad51 mutant) of the same molecule?
A: The value was 0.59.

Q: And the Fold ([3]; rad51 mutant)?
A: The Fold was 0.17x.

Q: What about the “Colonies on Hygromycin” value ([3]; rad52 mutant) of the same molecule?
A: The value was 31.

Q: And the “Correction Efficiency” value ([3]; rad52 mutant)?
A: The value was 0.86.

Q: What about the Fold ([3]; rad52 mutant) of the same molecule?
A: The Fold was 0.24x.

Q: What about the “Colonies on Hygromycin” value ([3]; rad54 mutant) of the same molecule?
A: The value was 0.

Q: And the “Correction Efficiency” value ([3]; rad54 mutant)?
A: The value was 0.

Q: What about the Fold ([3]; rad54 mutant) of the same molecule?
A: Its Fold is 0x.

Q: And the “Colonies on Hygromycin” value ([3]; rad55 mutant)?
A: The value was 0.

Q: And the “Correction Efficiency” value ([3]; rad55 mutant)?
A: Its value is 0.

Q: And the Fold ([3]; rad55 mutant)?
A: Its Fold is 0X.

Q: What about the “Colonies on Hygromycin” value ([3]; rad57 mutant) of the same molecule?
A: The value was 34.

Q: What about the “Correction Efficiency” value ([3]; rad57 mutant) of the same molecule?
A: The value was 0.33.

Q: What about the Fold ([3]; rad57 mutant) of the same molecule?
A: The Fold was 0.10x.

Q: And the “Colonies on Hygromycin” value ([3]; rad59 mutant)?
A: Its value is 116.

Q: And the “Correction Efficiency” value ([3]; rad59 mutant)?
A: Its value is 2.47.

Q: What about the Fold ([3]; rad59 mutant) of the same molecule?
A: The Fold was 0.71x.

Q: And the “Colonies on Hygromycin” value ([3]; wild type)?
A: The value was 256.

Q: What about the “Correction Efficiency” value ([3]; wild type) of the same molecule?
A: Its value is 3.46.

Q: And the Fold ([3]; wild type)?
A: Its Fold is 1x.

Q: What about the “Colonies on Hygromycin” value ([3]; xrs2 mutant) of the same molecule?
A: The value was 6.

Q: And the “Correction Efficiency” value ([3]; xrs2 mutant)?
A: The value was 0.04.

Q: What about the Fold ([3]; xrs2 mutant) of the same molecule?
A: The Fold was 0.01x.

Q: And the C.E. [4]?
A: Its C.E. is 0 ×10^−4.

Q: What about the “No. of YPG Plate Colonies” value [4] of the same molecule?
A: Its value is 0.
